Laboratory results as given in patent US20250074980A1 (BRIGHAM AND WOMEN S HOSPITAL, published 2025).

T1: His-tagged CEACAM1 (human, UniProt P13688 35-428)
T1 construct: 45 kDa SPR analyte; also called CEACAM1-HIS; CEACAM1 analyte
T1 sequence: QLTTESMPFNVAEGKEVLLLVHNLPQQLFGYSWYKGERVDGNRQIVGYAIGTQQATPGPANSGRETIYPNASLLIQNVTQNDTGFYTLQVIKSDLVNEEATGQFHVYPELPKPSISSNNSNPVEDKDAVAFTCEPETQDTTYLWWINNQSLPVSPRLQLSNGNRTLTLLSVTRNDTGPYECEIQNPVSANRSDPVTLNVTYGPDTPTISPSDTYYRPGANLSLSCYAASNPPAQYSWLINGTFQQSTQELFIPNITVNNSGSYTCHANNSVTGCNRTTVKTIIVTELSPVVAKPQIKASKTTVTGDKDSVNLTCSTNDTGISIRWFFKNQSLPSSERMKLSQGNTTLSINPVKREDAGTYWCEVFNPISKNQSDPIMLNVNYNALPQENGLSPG

T2: CEACAM5 on transfected HeLa cells (human, UniProt P06731 35-685)
T2 construct: whole, on cells; also called HeLa-CEACAM5; HeLa C5
T2 sequence (looked up): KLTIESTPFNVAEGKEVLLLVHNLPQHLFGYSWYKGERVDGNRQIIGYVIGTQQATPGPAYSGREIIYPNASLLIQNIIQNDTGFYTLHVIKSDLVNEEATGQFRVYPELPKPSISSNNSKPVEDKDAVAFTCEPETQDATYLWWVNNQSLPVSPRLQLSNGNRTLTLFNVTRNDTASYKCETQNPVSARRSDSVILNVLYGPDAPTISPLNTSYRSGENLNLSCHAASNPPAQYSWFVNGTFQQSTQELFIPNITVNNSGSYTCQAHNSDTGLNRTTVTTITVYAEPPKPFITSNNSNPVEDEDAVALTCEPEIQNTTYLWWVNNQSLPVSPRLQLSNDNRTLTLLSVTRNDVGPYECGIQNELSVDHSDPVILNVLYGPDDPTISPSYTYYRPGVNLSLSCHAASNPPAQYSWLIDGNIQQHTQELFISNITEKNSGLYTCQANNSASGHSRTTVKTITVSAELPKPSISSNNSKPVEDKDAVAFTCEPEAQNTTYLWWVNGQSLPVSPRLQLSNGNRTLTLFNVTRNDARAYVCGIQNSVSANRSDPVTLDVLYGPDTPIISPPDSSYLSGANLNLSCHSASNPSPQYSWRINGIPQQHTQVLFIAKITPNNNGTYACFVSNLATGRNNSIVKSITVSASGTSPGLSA

B1: VH1/Vκ8 S29A (antibody, IgG4, V domains shown)
VH: EVQLLESGGGLVQPGGSLRLSCAASGFIFSSHGMSWVRQAPGKGLEWVATISSGGTYTYYPDSVKGRFTISRDNSKNTLYLQMNSLKAEDTAMYYCARHDFDYDAAWFAYWGQGTLVTVSS
VL: EIVLTQSPATLSLSPGERATLSCRANSAVSYMYWYQQKPGQAPRPWIYLTSNRATGVPARFSGSGSGTDYTLTISSLEPEDFAVYYCQQWSSNPPTFGQGTKLEIK
notes: IgG4 (S241P), kappa; also called Parent; Parent (VH1/Vκ8 S29A)
B2: CP08H03/Vκ8 S29A (antibody, IgG4, V domains shown)
VH: EVQLLESGGGLVQPGGSLRLSCAASGFIFSSHGMSWVRQAPGKGLEWVATISSGGTYTYYPDSVKGRFTISRDNSKNTLYLQMNSLKAEDTAMYYCARHDFDYFPYWFAHWGQGTLVTVSS
VL: EIVLTQSPATLSLSPGERATLSCRANSAVSYMYWYQQKPGQAPRPWIYLTSNRATGVPARFSGSGSGTDYTLTISSLEPEDFAVYYCQQWSSNPPTFGQGTKLEIK
notes: IgG4 (S241P), kappa; also called CP08_H03/Parent VL; CP08_H03/Parental

Tests used:
His-tagged CEACAM1 = target: T1, His-tagged CEACAM1; assay: SPR single-cycle, supernatant IgG captured
Method in brief: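 Humanized, affinity-matured IgGs from crude supernatant (0.5 μg/ml in HBS-P+) captured on Protein A to ~100 RU. Single-cycle kinetics: CEACAM1 at three concentrations, 70–280 nM two-fold, 80 μl/min, 80 s association each, 150 s dissociation. Reference-channel and blank-run subtraction applied.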

[1] = target: T2, CEACAM5 on transfected HeLa cells; assay: flow cytometry titration, HeLa-CEACAM5 transfectants, anti-human IgG4 FITC
Method: FIGS. 31A and 31B show flow cytometry analyses of stable HeLa CEACAM1 (HeLa C1) transfectant, stable HeLa CEACAM3 transfectant (HeLa C3), stable HeLa CEACAM5 transfectant (HeLa C5), stable HeLa CEACAM6 transfectant (HeLa C6), and stable HeLa CEACAM8 transfectant (HeLa C8). FIG. 31A: 5×10\hat{ }4 indicated HeLa transfectants were washed with staining buffer and CP08H03/Vκ8 S29A (labeled “CP08”, left) or CEACAM1 antibody CM-24 was incubated at room temperature for 30 min, washed twice with staining buffer, and stained for anti-human IgG4 Fluorescein isothiocyanate (FITC) conjugated secondary antibody at room temperature for 20 min. Fluorescence intensities were determined by flow cytometry. Live cells were determined by 4′,6-diamidino-2-phenylindole (DAPI) staining as shown on the y-axis. Staining with the respective CEACAM1 antibody is shown on the x-axis. […]
The cervical adenocarcinoma cell line HeLa (ATCC No CCL-2) as well as transfected cell lines HeLaCEACAM1, HeLaCEACAM3, HeLaCEACAM5, HeLaCEACAM6 and HeLaCEACAM8 used for flow cytometry experiments were cultured at 37° C., 5.0% CO₂ in Dulbecco's modified Eagle's medium supplemented with 10% fetal bovine serum, penicillin (100 U/ml) and dihydrostreptomycin (100 μg/ml). […] Data were acquired with a Cytoflex flow cytometer (Invitrogen) and analyzed with FlowJo software (TreeStar, V7.6.5 for Windows).

Binder	Kd (His-tagged CEACAM1) [nM]	koff (His-tagged CEACAM1) [s⁻¹]	kon (His-tagged CEACAM1) [M⁻¹ s⁻¹]	relative KD to parent (His-tagged CEACAM1)	binding result [1]
B1	560	0.053	94000	1	–
B2	–	–	–	–	no binding (tested: 100 ug/ml)
